# Source: patent US20240109958A1 (Genentech, published 2024)
# Positions count from the first letter of the chain named. Groups on a side chain read outwards from the residue. No end group written: not given here.
# T1: biotinylated K-ε-GG peptide (AAA{K-ε-GG}AAA) (also: biotinylated, position not given here)
# T1 construct: also called branched diglycine peptide
# T1 peptide: AAAK([Gly-Gly])AAA
# B1: anti-GGX monoclonal antibody 1C7 (rabbit IgG) (antibody, V domains shown)
# VH: QSVKESGGRLVTPGTPLTLTCKVSGFSLSSYYMNWVRQAPGKGLEWIGIMFPNGKIYYATWAKGRFTISKTSTTVDLKIISPTTEDTATYFCTGDDSGDVNIWGPGTLVTVSS
# VL: DIVLTQTASPVSAAVGGTVTINCQSSQSVYTNNRLAWYQQKPGQPAKEMIYGASTLPSGVSSRFKGSGSGTQFALTISDVQCDDAATYYCLGTYDCLSADCLAFGGGTKLEIKG
# notes: also called anti-GGX antibody 1C7; anti-GGX mAb
# B2: anti-GGX monoclonal antibody 2E9 (rabbit IgG) (antibody, V domains shown)
# VH: QKQLMESGGRLVTPGTPLTLTCKVSGFSLSSYYMNWVRQAPGKGLEWIGIMFPNGKIYYATWAKGRFTISKTSTTVDLKIISPTTEDTATYFCTGDDSGDVNIWGPGTLVTVSS
# VL: B1 VL with T93E, Y94F, L97T, L102F, A103V, K109E, L110V, E111V, I112V
# notes: also called anti-GGX antibody 2E9; anti-GGX 2E9 antibody
# B3: anti-GGX monoclonal antibody 2H2 (rabbit IgG) (antibody, V domains shown)
# VH: B1 VH with K4E, G7R
# VL: B1 VL with I2P, V3M, T31S, A46P, A74T, K109E, L110V, E111V, I112V
# notes: also called anti-GGX antibody 2H2; anti-GGX 2H2 antibody
# B4: anti-GGX monoclonal antibody 2B12 (rabbit IgG) (antibody, V domains shown)
# VH: QSVEESGGGLVTPGGALTLTCTASGFSLNRHWMNWVRQAPGKGLEWIGAINESGRTYYATWAKGRFFISKTTTTVDLKITSPTTADTATYFCVRDDDVSNFWGPGTLVTVSS
# VL: DPMLTQTPSSVSAAVGGTVSINCQSTKSVYKYNHLSWYQQKPGQPPKQLIFPASTLQSGVPSRFSGSGSGTQFTLTISDVQCDDAATYYCLGLYDCRSGDCNVFGGGTKLEIKG
# notes: also called anti-GGX antibody 2B12
# Target: T1, biotinylated K-ε-GG peptide …
# Test: ELISA, biotinylated peptide on neutravidin plates
# Protocol: Biotinylated peptides (GGM and K-ε-GG) were coated at 1 μg/mL in PBS on neutravidin ELISA plates (Thermo Scientific) in triplicate overnight at 4° C. Plates were washed with PBST prior to use. Serial dilutions of GGX mAbs or K-ε-GG mAb (Cell Signaling Technology) at 1 μg/mL were added for 1-2 hours at 25° C. Plates were washed and further developed as described above (see FIG. 1E).
row,Binder,binding result
1,B1,no binding (tested: 1 µg/mL)
2,B2,no binding (tested: 1 µg/mL)
3,B3,no binding (tested: 1 µg/mL)
4,B4,no binding (tested: 1 µg/mL)
